From patent publication US20050009847A1, “Compounds and methods for increasing neurogenesis” (published 2005)

Molecular target: alpha-subunit of the stimulatory G protein (Gs), mouse (mouse, UniProt P63094)
Experiment: cell-based or functional assay

B1: Cholera toxin from Vibrio Cholerae (other)
chain: NDDKLYRADSRPPDEIKQSGGLMPRGQSEYFDRGTQMNINLYDHARGTQTGFVRHDDGYVSTSISLRSAHLVGQTILSGHSTYYIYVIATAPNMFNVNDVLGAYSPHPDEQEVSALGGIPYSQIYGWYRVHFGVLDEQLHRNRGYRDRYYSNLDIAPAADGYGLAGFPPEHRAWREEPWIHHAPPGCGNAPRSSMSNTCDEKTQSLGVKFLDEYQSKVKRQIFSGYQSDIDTHNRIKDEL
  cAMP, fold induction over vehicle, adult mouse neural stem cells: 3.1 fold induction
